Patent US7041458B2, “Methods and reagents for determining protein S” (priority 1996, dated 2006)
Where no end group is shown, it is not given here.

What was measured:
[1] = target: T1, protein S-C4BP interaction (Homo sapiens, UniProt P20851); assay: Peptide inhibition of the protein S-C4BP interaction in microtiter plates (equilibrium binding assay, 125I-labelled protein S tracer, immobilized C4BP); details: displacement of 125I-labelled protein S from immobilized C4BP, EDTA buffer; read-out: half-maximum inhibition
T1 construct: C4BPβ was first isolated from human plasma in the form of the protein S-C4BP complex; from tissue; host or cells: human plasma
T1 sequence (P20851 18-252): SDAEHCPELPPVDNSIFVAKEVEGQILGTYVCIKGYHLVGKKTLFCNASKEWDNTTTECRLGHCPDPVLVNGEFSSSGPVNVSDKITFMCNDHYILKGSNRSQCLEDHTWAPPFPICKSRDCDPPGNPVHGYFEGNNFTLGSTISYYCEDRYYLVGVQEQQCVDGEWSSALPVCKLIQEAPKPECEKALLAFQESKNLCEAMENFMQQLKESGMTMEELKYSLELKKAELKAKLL
T1 sequence (P04003 49-597 partner): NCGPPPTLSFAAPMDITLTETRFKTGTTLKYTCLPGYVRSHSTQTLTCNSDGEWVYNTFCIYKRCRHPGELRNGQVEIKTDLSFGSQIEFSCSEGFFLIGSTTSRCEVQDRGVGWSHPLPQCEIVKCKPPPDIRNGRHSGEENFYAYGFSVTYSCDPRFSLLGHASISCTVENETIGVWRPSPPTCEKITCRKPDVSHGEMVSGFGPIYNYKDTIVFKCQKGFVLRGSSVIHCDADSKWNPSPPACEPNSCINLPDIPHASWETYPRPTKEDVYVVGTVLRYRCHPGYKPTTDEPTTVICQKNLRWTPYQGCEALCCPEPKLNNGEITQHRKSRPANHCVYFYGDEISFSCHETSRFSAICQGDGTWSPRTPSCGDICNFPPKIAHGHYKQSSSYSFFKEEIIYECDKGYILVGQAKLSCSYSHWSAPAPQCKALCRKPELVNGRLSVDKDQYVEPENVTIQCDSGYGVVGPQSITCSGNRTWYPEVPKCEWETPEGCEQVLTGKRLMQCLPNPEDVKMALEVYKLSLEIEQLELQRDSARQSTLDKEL
Procedure: D. Peptide Inhibition of the Protein S-C4BP Interaction in Microtiter Plates.
(§1) Microtiter plates were coated with C4BP, 50 μl/well, 10 μg/ml in 0.075 M sodium carbonate buffer, pH 9.6. The plates were incubated over night at 4° C. and then washed with TBS, pH 7.5, containing 0.1% Tween 20. […] The wells were then washed and the amount of bound protein S detected using a γ-counter.
As disclosed in Section D, the synthetic peptides were tested for their ability to displace binding of a ^125I-labelled protein S tracer to immobilized C4BP (FIG. 5A).
(§2) In these figures, peptide inhibition of the protein S-C4BP interaction is shown as the amount of protein S bound (relative to the amount bound in the absence of peptide) versus concentration of the nine peptides listed in Table 1: (o) SL1, (♦) SL2, (□) SL3, (+) SL4, (⋄) SL5, (●) SL6, (▾) SL7, (Δ) BD4 & (∇) BD6. In FIG. 5A, the result from an equilibrium binding assay using immobilized C4BP in microtiter wells and radiolabelled human protein S is shown. […] In FIG. 5B, the result from surface plasmon resonance assay on a BIAcore™ sensorchip is shown. The amount of protein S bound, X, was calculated from the observed signal intensity, S, compared to the maximum signal intensity in the absence of peptide Smax, as X=(S−0.04)/0.96 Smax.

C4BP = target: T2, C4BP (Homo sapiens, UniProt P20851); assay: Fluorescence polarization titration of peptides with C4BP (results not shown); type: binding; details: read-out: dissociation constant KD of the peptide-C4BP complex
T2 sequence (P20851 18-252): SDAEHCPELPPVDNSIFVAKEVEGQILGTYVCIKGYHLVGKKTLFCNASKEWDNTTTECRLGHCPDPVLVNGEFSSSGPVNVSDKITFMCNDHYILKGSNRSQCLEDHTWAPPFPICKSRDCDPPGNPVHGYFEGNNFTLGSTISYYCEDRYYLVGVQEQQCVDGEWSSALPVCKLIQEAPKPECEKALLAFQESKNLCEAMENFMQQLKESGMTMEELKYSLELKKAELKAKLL
T2 sequence (P04003 49-597 partner): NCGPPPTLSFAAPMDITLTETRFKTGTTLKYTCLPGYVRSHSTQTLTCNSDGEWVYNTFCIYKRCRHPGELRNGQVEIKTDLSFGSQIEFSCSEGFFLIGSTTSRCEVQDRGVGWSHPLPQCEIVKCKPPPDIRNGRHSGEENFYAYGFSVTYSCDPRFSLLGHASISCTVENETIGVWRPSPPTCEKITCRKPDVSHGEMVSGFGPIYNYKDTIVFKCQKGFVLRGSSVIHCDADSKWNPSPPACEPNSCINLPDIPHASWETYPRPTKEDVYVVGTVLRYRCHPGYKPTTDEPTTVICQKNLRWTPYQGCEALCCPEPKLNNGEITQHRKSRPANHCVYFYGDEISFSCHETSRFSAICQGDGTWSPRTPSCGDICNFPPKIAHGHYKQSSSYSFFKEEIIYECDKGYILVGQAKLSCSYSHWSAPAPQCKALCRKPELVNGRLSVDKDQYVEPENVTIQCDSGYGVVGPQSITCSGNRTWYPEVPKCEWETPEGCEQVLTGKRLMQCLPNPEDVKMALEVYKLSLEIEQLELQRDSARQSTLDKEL
Excerpt: The difference in KD observed for the peptide and protein might in part be due to post translational modification of the protein.

[2] = target: T1, protein S-C4BP interaction; assay: Peptide inhibition of the protein S-C4BP interaction by surface plasmon resonance (BIAcore, immobilized C4BP); type: binding; details: for effect on binding of human protein S to C4BP (SPR response): 50 nM protein S, peptide up to 100 μM (2000-fold excess)
Procedure: E. Peptide Inhibition of the Protein S-C4BP Interaction According to Surface Plasmon Resonance Studies.
The surface plasmon resonance studies were performed using a BIAcore™ apparatus from Pharmacia Biosensor AB. Immobilization of C4BP to the dextran coated gold surface of a sensorchip was performed at a flow rate of 5 μl/min, using HC as flow buffer. Equal volumes of 0.1 M NHS and 0.1 M EDC were first mixed, whereafter 30 μl of the mixture was flown over the sensorchip surface to activate the carboxymethylated dextran. C4BP was then injected over the sensorchip (40 μl of a 60 μg/ml solution in 10 mM NaOAc at pH 4.75), whereafter unreacted NHS-ester groups were blocked by 15 μl 1M ethanolamine (pH 8.5). The system was regenerated by addition of 15 μl 0.1 M HCl, which removes all non-covalently bound molecules. The immobilized amount of C4BP was 8000 RU. Protein S association was monitored with 50 nM human protein S in HC buffer in a continuous flow of 1 μl per minute during 45 minutes. The ability of each peptide to inhibit the protein S binding was studied by following the association to C4BP for mixtures of protein S and peptide. In BIAcore™, the total amount of bound material is measured, and the peptides are 25-fold smaller than protein S, inhibition of protein S-binding by peptide binding will drastically lower the observed response during the association phase. The percent protein S bound, X, was calculated as X=(S−0.04Smax)/0.96Smax where S is the measured response and Smax is the response obtained in the absence of peptide.
As disclosed in Section E, the ability of the synthetic peptides to inhibit the binding of human protein S to C4BP was also studied using surface plasmon resonance on a BIA-core™ system.
as §2

[3] = target: T3, C4b-binding protein (C4BP), species containing the protein S binding β-chain, purified from human plasma (human, UniProt P04003 49-597; P20851 18-252); assay: SPR (BIAcore) competition: 50 nM human protein S mixed with peptide, flowed over immobilised C4BP (8000 RU), HC buffer; percent protein S bound calculated from the response
T3 construct: mature; Isolated from human plasma as the protein S-C4BP complex, dissociated in 3 M guanidine-HCl and purified further; predominantly C4BPβ, and a minor proportion lacking the β-chain may be present; Immobilised on microtiter wells or on a CM5 sensorchip; also called C4BPβ
T3 sequence (looked up) 1: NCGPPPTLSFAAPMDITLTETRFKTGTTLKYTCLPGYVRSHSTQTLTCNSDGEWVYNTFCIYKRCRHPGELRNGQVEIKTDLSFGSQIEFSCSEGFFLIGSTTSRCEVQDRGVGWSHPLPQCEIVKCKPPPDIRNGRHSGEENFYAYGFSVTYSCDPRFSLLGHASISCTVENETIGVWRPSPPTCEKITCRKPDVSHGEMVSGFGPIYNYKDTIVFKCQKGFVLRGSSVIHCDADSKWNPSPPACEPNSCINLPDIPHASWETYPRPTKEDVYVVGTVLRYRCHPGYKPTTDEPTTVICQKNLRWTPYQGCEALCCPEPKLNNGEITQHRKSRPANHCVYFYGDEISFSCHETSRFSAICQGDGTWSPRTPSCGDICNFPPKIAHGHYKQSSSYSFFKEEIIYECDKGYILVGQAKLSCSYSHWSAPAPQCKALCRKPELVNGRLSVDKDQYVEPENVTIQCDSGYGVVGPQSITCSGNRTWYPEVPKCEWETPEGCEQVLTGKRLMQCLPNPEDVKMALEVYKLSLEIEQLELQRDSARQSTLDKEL
T3 sequence (looked up) 2: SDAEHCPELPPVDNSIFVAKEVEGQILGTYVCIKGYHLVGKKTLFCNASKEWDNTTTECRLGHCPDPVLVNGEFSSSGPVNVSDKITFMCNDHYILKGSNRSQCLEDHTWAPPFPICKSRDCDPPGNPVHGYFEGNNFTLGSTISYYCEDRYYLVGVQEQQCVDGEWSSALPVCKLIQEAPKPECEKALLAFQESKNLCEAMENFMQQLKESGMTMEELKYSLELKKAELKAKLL
Procedure: The surface plasmon resonance studies were performed using a BIAcore™ apparatus from Pharmacia Biosensor AB. Immobilization of C4BP to the dextran coated gold surface of a sensorchip was performed at a flow rate of 5 μl/min, using HC as flow buffer. Equal volumes of 0.1 M NHS and 0.1 M EDC were first mixed, whereafter 30 μl of the mixture was flown over the sensorchip surface to activate the carboxymethylated dextran. C4BP was then injected over the sensorchip (40 μl of a 60 μg/ml solution in 10 mM NaOAc at pH 4.75), whereafter unreacted NHS-ester groups were blocked by 15 μl 1M ethanolamine (pH 8.5). […] Protein S association was monitored with 50 nM human protein S in HC buffer in a continuous flow of 1 μl per minute during 45 minutes. […] The percent protein S bound, X, was calculated as $$X=(S-0.04Smax)/0.96Smax$$
In these figures, peptide inhibition of the protein S-C4BP interaction is shown as the amount of protein S bound (relative to the amount bound in the absence of peptide) versus concentration of the nine peptides listed in Table 1: (o) SL1, (♦) SL2, (□) SL3, (+) SL4, (◊) SL5, (●) SL6, (▼) SL7, (Δ) BD4 & (▽) BD6. […] The amount of protein S bound, X, was calculated from the observed signal intensity, S, compared to the maximum signal intensity in the absence of peptide $Smax$, as $X=(S-0.04)/0.96\ Smax$.

[4] = target: T3, C4b-binding protein (C4BP), species …; assay: competition, equilibrium binding in microtiter wells: peptide against a trace of 125I-labelled human protein S on immobilised C4BP, TBS with 10 mM EDTA, 4 °C overnight, gamma counting
Procedure: as §1
as §2, with “(◊)” for “(⋄)”, “(▼)” for “(▾)”, “(▽)” for “(∇)”, “$Smax$,” for “Smax,”, “$X=(S-0.04)/0.96\ Smax$.” for “X=(S−0.04)/0.96 Smax.”

[5] = target: T3, C4b-binding protein (C4BP), species …; assay: unlabelled protein S competing with 125I-protein S tracer for immobilised C4BP in microtiter wells, EDTA buffer
Procedure: as §1
as §2, with “(◊)” for “(⋄)”, “(▼)” for “(▾)”, “(▽)” for “(∇)”, “$Smax$,” for “Smax,”, “$X=(S-0.04)/0.96\ Smax$.” for “X=(S−0.04)/0.96 Smax.”

## SGIAQFHIDYNNVSSAEGWHVN [SL6]
[1]
  IC50: 100 to 200 µM
C4BP
  Kd: ≤ 1 µM
[2]; 50 nM human protein S, immobilized C4BP, read-out: half maximum inhibition, peptide concentration
  IC50: 30 to 120 µM

## SDQQSHLEFRVNNLEKSTPLK [SL3]
[2]
  effect on binding of human protein S to C4BP (SPR response): the same response was observed as with protein S alone

## DKAMKAKVATYLGGLPDVPFSAT [SL4]
[2]
  effect on binding of human protein S to C4BP (SPR response): the same response was observed as with protein S alone

## SGIAQFHIDYNNVSSAEGWHVN [SL6 synthetic peptide (protein S residues 447-468)]
[3]
  IC50 (read off the curve): ~30 µM

## EKGSYYPGSGIAQFHIDYNNVS [SL2 synthetic peptide (protein S residues 439-460)]
[3]
  IC50 (read off the curve): ~40 µM
[4]
  IC50 (read off the curve): ~200 µM

## LVTVEKGSYYPGSGIAQFHIDYNNVSSAEGWHVN [SL7 synthetic peptide (protein S residues 435-468)]
[4]
  IC50 (read off the curve): ~90 µM

B1: plasma purified human protein S (other, UniProt P07225 42-676, looked up)
chain: ANSLLEETKQGNLERECIEELCNKEEAREVFENDPETDYFYPKYLVCLRSFQTGLFTAARQSTNAYPDLRSCVNAIPDQCSPLPCNEDGYMSCKDGKASFTCTCKPGWQGEKCEFDINECKDPSNINGGCSQICDNTPGSYHCSCKNGFVMLSNKKDCKDVDECSLKPSICGTAVCKNIPGDFECECPEGYRYNLKSKSCEDIDECSENMCAQLCVNYPGGYTCYCDGKKGFKLAQDQKSCEVVSVCLPLNLDTKYELLYLAEQFAGVVLYLKFRLPEISRFSAEFDFRTYDSEGVILYAESIDHSAWLLIALRGGKIEVQLKNEHTSKITTGGDVINNGLWNMVSVEELEHSISIKIAKEAVMDINKPGPLFKPENGLLETKVYFAGFPRKVESELIKPINPRLDGCIRSWNLMKQGASGIKEIIQEKQNKHCLVTVEKGSYYPGSGIAQFHIDYNNVSSAEGWHVNVTLNIRPSTGTGVMLALVSGNNTVPFAVSLVDSTSEKSQDILLSVENTVIYRIQALSLCSDQQSHLEFRVNRNNLELSTPLKIETISHEDLQRQLAVLDKAMKAKVATYLGGLPDVPFSATPVNAFYNGCMEVNINGVQLDLDEAISKHNDIRAHSCPSVWKKTKNS
modifications: 125I-labelled where used as tracer in the microtiter equilibrium assay
notes: mature; also called PS; free protein S
[5]
  IC50: ~2 µM
